# B1: 6xHis-tagged RBD_(ROCK1) (domain or fragment)
# chain: KDHTVSRLEEANSMLTKDIEILRRENEELTEKMKKAEEEYKLEKEEEISNLKAAFEKNINTERTLKTQAVNKLAEIMNRKDF
# Experiments:
# Assay in all cases: BLI
# GST-tagged RhoA (Q63L) [1] = biological target: T1, GST-tagged RhoA (Q63L) (UniProt P61586 1-193, Q63L)
# GST-tagged Rac1 (Q61L) [2] = biological target: T2, GST-tagged Rac1 (Q61L) (UniProt P63000 1-192, Q61L)
# [3] = biological target: T3, GST-tagged Rac1F37W (Q61L) (UniProt P63000 1-192, F37W | Q61L)
# GST-tagged RhoA (Q63L) [4] = biological target: T1, GST-tagged RhoA (Q63L); remark: listed apart in the source
# GST-tagged Rac1 (Q61L) [5] = biological target: T2, GST-tagged Rac1 (Q61L); remark: listed apart in the source
# [6] = biological target: T3, GST-tagged Rac1F37W (Q61L); remark: listed apart in the source
binder,measurement,setting,value
B1,koff,GST-tagged RhoA (Q63L) [1],0.000699 s⁻¹
same,koff,GST-tagged Rac1 (Q61L) [2],0.00156 s⁻¹
same,koff,[3],0.00474 s⁻¹
same,Kd,GST-tagged RhoA (Q63L) [4],31 nM
same,Kd,GST-tagged Rac1 (Q61L) [5],56 nM
same,Kd,[6],179 nM
